In PMC9482650, “Quantitative fragmentomics allow affinity mapping of interactomes” (Nature Communications, 2022):
Positions count from the first letter of the chain named.

Experiments:
Assay in all cases: holdup assay
Set-up in all cases: key: below the threshold = too weak to quantify, mostly under pKd 3.1 to 4
[1] = molecular target: PDZRN4_1, Q6ZMN7
[2] = molecular target: NOS1, P29475
[3] = molecular target: T1, MPP7, Q5T2T1
T1 sequence (Q5T2T1 134-230, limits assumed, looked up): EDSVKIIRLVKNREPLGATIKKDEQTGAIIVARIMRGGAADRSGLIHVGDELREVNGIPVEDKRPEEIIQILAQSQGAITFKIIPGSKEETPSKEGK

[4] = molecular target: T2, GRIP1_2, Q9Y3R0
T2 sequence (Q9Y3R0 145-248, limits assumed, looked up): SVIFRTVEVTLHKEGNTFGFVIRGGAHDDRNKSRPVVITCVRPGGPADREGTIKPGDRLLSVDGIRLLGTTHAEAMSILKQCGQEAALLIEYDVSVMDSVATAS

[5] = molecular target: T3, LIN7A, O14910
T3 sequence (O14910 103-200, limits assumed, looked up): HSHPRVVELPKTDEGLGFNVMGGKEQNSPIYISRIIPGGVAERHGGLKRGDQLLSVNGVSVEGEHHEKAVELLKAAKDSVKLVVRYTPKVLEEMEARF

[6] = molecular target: T4, SNTG1, Q9NSN8
T4 sequence (Q9NSN8 52-150, limits assumed, looked up): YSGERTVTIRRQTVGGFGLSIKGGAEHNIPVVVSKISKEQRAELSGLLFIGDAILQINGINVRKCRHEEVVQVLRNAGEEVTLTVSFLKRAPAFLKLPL

[7] = molecular target: GIPC2, Q8TF65
[8] = molecular target: PICK1, Q9NRD5
[9] = molecular target: GRIP2_4, Q9C0E4
[10] = molecular target: T5, NHERF3_3, Q5T2W1
T5 sequence (Q5T2W1 238-333, limits assumed, looked up): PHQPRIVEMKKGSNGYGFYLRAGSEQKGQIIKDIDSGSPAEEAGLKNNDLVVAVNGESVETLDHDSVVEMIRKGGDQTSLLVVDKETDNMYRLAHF

[11] = molecular target: DLG4_2, P78352
[12] = molecular target: Inadl_8, Q8NI35
[13] = molecular target: MAGI1_1, Q96QZ7
[14] = molecular target: T6, ARHGEF11, O15085
T6 sequence (O15085 42-136, limits assumed, looked up): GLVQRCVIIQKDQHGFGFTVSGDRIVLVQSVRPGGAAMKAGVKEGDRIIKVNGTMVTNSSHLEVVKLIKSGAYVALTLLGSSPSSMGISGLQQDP

[15] = molecular target: PARD3_3, Q8TEW0
[16] = molecular target: T7, SNTA1, Q13424
T7 sequence (Q13424 82-180, limits assumed, looked up): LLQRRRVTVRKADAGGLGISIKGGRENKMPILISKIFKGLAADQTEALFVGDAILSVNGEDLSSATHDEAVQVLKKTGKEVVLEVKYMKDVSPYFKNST

[17] = molecular target: T8, PTPN13_1, Q12923
T8 sequence (Q12923 1088-1188, limits assumed, looked up): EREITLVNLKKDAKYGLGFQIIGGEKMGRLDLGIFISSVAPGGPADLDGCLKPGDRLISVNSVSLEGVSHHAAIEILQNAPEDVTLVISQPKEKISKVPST

[18] = molecular target: DLG4_1, P78352
[19] = molecular target: T9, APBA2_2, Q99767
T9 sequence (Q99767 654-744, limits assumed, looked up): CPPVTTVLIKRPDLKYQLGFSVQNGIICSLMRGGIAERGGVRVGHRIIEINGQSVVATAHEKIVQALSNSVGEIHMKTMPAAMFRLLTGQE

[20] = molecular target: Inadl_4, Q8NI35
[21] = molecular target: IL16_4, Q14005
[22] = molecular target: T10, SYNJ2BP, P57105
T10 sequence (P57105 8-110, limits assumed, looked up): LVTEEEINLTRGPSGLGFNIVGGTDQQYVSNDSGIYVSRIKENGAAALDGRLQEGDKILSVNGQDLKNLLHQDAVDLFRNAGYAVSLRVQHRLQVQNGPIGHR

[23] = molecular target: SNX27, Q96L92
[24] = molecular target: T11, APBA1_2, Q02410
T11 sequence (Q02410 742-832, limits assumed, looked up): T9 sequence (Q99767 654-744, limits assumed, looked up) with K10R, K15R, A59P, Q65H, A66I, S70A, F84Y, G89A

[25] = molecular target: T12, LNX2_2, Q8N448
T12 sequence (Q8N448 334-432, limits assumed, looked up): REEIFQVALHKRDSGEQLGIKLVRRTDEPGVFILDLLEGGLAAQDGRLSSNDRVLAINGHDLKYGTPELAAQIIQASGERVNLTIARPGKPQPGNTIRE

[26] = molecular target: Inadl_2, Q8NI35
[27] = plain residues with an end cap or a label only (N-terminal biotin on a linker: ttds)
[28] = plain residues with an end cap or a label only (N-terminal biotin on a linker: ado-ado)
[29] = plain residues with an end cap or a label only (N-terminal biotin on a linker: gsgsgs; C-terminal amide)

Chain of PARD3_3, Q8TEW0 (Q8TEW0 582-685): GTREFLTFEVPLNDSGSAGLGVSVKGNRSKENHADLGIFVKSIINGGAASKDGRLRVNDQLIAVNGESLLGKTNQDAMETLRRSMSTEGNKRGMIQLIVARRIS
Chain of DLG4_1, P78352 (P78352 62-152): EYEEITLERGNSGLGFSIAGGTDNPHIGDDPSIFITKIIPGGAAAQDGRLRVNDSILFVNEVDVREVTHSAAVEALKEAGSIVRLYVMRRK
Chain of Inadl_4, Q8NI35 (Q8NI35 547-651): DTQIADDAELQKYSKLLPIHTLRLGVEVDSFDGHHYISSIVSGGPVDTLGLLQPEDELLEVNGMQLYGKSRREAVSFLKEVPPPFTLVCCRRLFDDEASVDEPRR
Chain of GRIP2_4, Q9C0E4 (Q9C0E4 446-548): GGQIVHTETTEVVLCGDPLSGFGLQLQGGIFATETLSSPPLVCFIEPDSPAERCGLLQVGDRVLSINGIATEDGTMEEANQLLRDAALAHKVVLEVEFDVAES
Chain of Inadl_8, Q8NI35 (Q8NI35 1425-1530): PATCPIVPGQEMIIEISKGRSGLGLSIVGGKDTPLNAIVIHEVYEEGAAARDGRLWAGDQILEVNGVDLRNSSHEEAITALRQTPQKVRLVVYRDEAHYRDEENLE
Chain of DLG4_2, P78352 (P78352 155-259): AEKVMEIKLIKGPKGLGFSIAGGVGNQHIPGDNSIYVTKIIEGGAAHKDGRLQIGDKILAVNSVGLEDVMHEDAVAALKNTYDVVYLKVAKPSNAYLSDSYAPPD
Chain of NOS1, P29475 (P29475 9-101): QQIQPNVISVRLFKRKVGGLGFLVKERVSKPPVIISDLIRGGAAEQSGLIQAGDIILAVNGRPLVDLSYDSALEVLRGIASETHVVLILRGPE
Chain of Inadl_2, Q8NI35 (Q8NI35 238-335): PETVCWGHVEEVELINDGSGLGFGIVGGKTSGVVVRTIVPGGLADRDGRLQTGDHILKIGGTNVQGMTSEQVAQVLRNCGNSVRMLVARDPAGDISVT
Chain of PICK1, Q9NRD5 (Q9NRD5 17-115): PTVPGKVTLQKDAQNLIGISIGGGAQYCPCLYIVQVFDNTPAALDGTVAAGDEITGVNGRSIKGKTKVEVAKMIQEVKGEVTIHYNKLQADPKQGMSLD
Chain of IL16_4, Q14005 (Q14005 1229-1329): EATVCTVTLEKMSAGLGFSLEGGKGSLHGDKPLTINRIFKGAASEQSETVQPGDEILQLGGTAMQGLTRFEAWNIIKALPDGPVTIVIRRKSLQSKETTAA
Chain of PDZRN4_1, Q6ZMN7 (Q6ZMN7 213-318): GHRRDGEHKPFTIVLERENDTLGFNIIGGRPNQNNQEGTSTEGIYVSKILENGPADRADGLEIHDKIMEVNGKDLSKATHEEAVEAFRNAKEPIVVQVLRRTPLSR
Chain of GIPC2, Q8TF65 (Q8TF65 112-203): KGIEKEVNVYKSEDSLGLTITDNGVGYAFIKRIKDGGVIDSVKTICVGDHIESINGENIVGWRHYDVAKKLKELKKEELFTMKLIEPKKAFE
Chain of MAGI1_1, Q96QZ7 (Q96QZ7 1-106): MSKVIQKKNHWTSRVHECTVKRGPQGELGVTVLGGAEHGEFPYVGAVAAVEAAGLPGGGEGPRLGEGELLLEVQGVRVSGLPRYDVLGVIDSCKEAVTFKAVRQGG

B1: SLC16A1, P53985 (peptide)
chain: GGPKEEESPV
pKd [1, 27]: below the threshold | pKd [2, 27]: 3.64 | pKd [3, 27]: below the threshold | pKd [4, 27]: below the threshold | pKd [5, 27]: below the threshold | pKd [6, 27]: 3.99 | pKd [7, 27]: below the threshold | pKd [8, 27]: below the threshold | pKd [9, 27]: below the threshold | pKd [10, 27]: below the threshold | pKd [11, 27]: 3.5 | pKd [12, 27]: below the threshold | pKd [13, 27]: below the threshold | pKd [14, 27]: below the threshold | pKd [15, 27]: below the threshold | pKd [16, 27]: below the threshold | pKd [17, 27]: below the threshold | pKd [18, 27]: below the threshold | pKd [19, 27]: below the threshold | pKd [20, 27]: below the threshold | pKd [21, 27]: below the threshold | pKd [22, 27]: 4.32 | pKd [23, 27]: 5.27 | pKd [24, 27]: below the threshold | pKd [25, 27]: below the threshold | pKd [26, 27]: below the threshold

B2: CES2, O00748 (peptide)
chain: EEPEERHTEL
pKd [1, 28]: 4.13 | pKd [2, 28]: 3.56 | pKd [3, 28]: 3.79 | pKd [4, 28]: below the threshold | pKd [5, 28]: below the threshold | pKd [6, 28]: 3.59 | pKd [7, 28]: below the threshold | pKd [8, 28]: below the threshold | pKd [9, 28]: below the threshold | pKd [10, 28]: below the threshold | pKd [11, 28]: 4 | pKd [12, 28]: below the threshold | pKd [13, 28]: 3.5 | pKd [14, 28]: 4.64 | pKd [15, 28]: 3.61 | pKd [16, 28]: 4.68 | pKd [17, 28]: below the threshold | pKd [18, 28]: below the threshold | pKd [19, 28]: below the threshold | pKd [20, 28]: below the threshold | pKd [21, 28]: below the threshold | pKd [22, 28]: 4.18 | pKd [23, 28]: 4.74 | pKd [24, 28]: 3.5 | pKd [25, 28]: below the threshold | pKd [26, 28]: below the threshold

B3: ARAP3_int, Q8WWN8 (peptide)
chain: ELIQDTSTSFSTTREW
pKd [1, 29]: below the threshold | pKd [2, 29]: below the threshold | pKd [3, 29]: below the threshold | pKd [4, 29]: below the threshold | pKd [5, 29]: below the threshold | pKd [6, 29]: below the threshold | pKd [7, 29]: below the threshold | pKd [8, 29]: below the threshold | pKd [9, 29]: below the threshold | pKd [10, 29]: below the threshold | pKd [11, 29]: below the threshold | pKd [12, 29]: below the threshold | pKd [13, 29]: below the threshold | pKd [14, 29]: below the threshold | pKd [15, 29]: below the threshold | pKd [16, 29]: below the threshold | pKd [17, 29]: below the threshold | pKd [18, 29]: below the threshold | pKd [19, 29]: below the threshold | pKd [20, 29]: below the threshold | pKd [21, 29]: below the threshold | pKd [22, 29]: below the threshold | pKd [23, 29]: below the threshold | pKd [24, 29]: below the threshold | pKd [25, 29]: below the threshold | pKd [26, 29]: below the threshold
